{"source": "patent US20100115665A1", "about": "(published 2010)", "binders": {"B1": {"name": "Grapevine virus A (GVA) (other)", "chain": "MAHYAKRVEIRAIIEELVLAKAQPTDDASESGYDRNMYLNTLFGYIALVGTSKKAIHYGEVDIVGPKASKKTGIDPRGKMVVSELVGRMRTLSVAVSEGPVKGATLRQMCEPFAQNAYDFLVVMAEMGTYSQLATKMTRSGFKEPQVMFDFASGLDLKALTLQEATVIQAMHSRLFRTEGAKGVFNAQSSIGEQAVEI", "notes": "The partner in the assay is the whole filamentous virus particle in plant sap"}}, "target": "T1, GroEL homologue from secondary endosymbiotic bacteria of the whitefly Bemisia tabaci (endosymbiotic bacteria of Bemisia tabaci, UniProt C4K477 1-552)", "T1 construct": "Chaperonin expressed in planta and assayed in plant sap; also called whitefly GroEL; B. tabaci GroEL", "test": "capture of sap of infected GroEL-transgenic N. benthamiana (7 dpi) in anti-GroEL coated tubes; RT-PCR and Western blot with virus-specific antibodies", "experimental": "Transgenic and non-transgenic N. benthamiana plants were mechanically inoculated with GVA and with TMV. Infection was assessed by RT-PCR and by Western blot analyses at 5-7 dpi (FIGS. 12A and 13A). The possible binding of GVA and TMV particles to GroEL in transgenic N. benthamiana plants was assessed as described above. Sap of infected transgenic plants at 7 dpi was incubated in PCR tubes coated with anti-GroEL antibody. Binding of GroEL-virus complexes to the coated tubes was assayed by RT-PCR and with virus-specific antibodies.", "data": [{"binder": "B1", "values": [{"measurement": "binding result", "value": "no binding"}]}]}
